{"source": "paper PMC9307627", "about": "“Targeting loop3 of sclerostin preserves its cardiovascular protective action and promotes bone formation”", "test_in_all_cases": "ELONA; ELONA: 160 ng protein coated in PBS; biotinylated aptamer 45 min at RT; wash in PBS pH 7.4, 1 mM MgCl2, 5 mM imidazole, 0.05% Tween 20; streptavidin-HRP/TMB, hyperbolic fit", "key": {"[1]": {"target": "full-length human sclerostin (FL hSOST) (human, UniProt Q9BQB4 25-213)", "sequence (Q9BQB4 25-213)": "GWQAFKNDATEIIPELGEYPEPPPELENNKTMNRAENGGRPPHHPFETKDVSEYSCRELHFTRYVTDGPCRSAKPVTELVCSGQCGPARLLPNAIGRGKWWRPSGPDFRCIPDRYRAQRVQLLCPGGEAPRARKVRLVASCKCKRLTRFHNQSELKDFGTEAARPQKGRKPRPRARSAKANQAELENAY", "conditions": "protein: recombinant; tags: His6; label: biotin"}, "sclerostin loop1": {"target": "T1, sclerostin loop1 (human, UniProt Q9BQB4 81-104)", "T1 chain": "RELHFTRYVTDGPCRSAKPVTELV", "conditions": "label: biotin"}, "sclerostin loop3 (WT)": {"target": "T2, sclerostin loop3 (WT) (human, UniProt Q9BQB4 135-164)", "T2 chain": "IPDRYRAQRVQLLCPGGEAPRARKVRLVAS", "conditions": "label: biotin"}, "sclerostin loop3m": {"target": "T3, sclerostin loop3m (human, UniProt Q9BQB4 135-164, R138A;Y139A;R140A;Q142A;R143A;V144A;G151A;E152A;R157A;K158A;V159A)", "T3 chain": "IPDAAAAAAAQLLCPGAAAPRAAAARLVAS", "conditions": "label: biotin"}, "sclerostin loop2": {"target": "T4, sclerostin loop2 (human, UniProt Q9BQB4 110-133)", "T4 chain": "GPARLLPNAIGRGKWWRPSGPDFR", "conditions": "label: biotin"}}, "data": [{"binder": "TGGAAGGGTGGGGGCGGGGGGTCCTCGCCTCGAACGTACG (ssDNA)", "note": "[aptamer candidate 6]", "values": [{"measurement": "Kd", "setting": "[1]", "value": 4.2, "unit": "nM"}]}, {"binder": "TGGGGGTAGGGGGTCCTTGGCTACGGTGATTCGGATGTGA (ssDNA)", "note": "[aptamer candidate 51]", "values": [{"measurement": "Kd", "setting": "[1]", "value": 62.2, "unit": "nM"}]}, {"binder": "GGGTGGATTAAGGGGGCCCCGTCTGTAGGCGATTGGCGAA (ssDNA)", "note": "[aptamer candidate 46]", "values": [{"measurement": "Kd", "setting": "[1]", "value": 45.6, "unit": "nM"}]}, {"binder": "CCCAGACGAGACACCTCATGCTTTTCCCCGGGGGAGGGGTAT (ssDNA)", "note": "[aptamer candidate 132]", "values": [{"measurement": "Kd", "setting": "[1]", "value": 42.2, "unit": "nM"}]}, {"binder": "TGGGGGTAGGGGGACCCTGGCTAGTTAGTCACCGTTTCGA (ssDNA)", "note": "[aptamer candidate 9]", "values": [{"measurement": "Kd", "setting": "[1]", "value": 3.4, "unit": "nM"}]}, {"binder": "CGGGGTGTGGGTTCGTCGTTAGCTTGATTTGGCAGCTGCC (ssDNA)", "note": "[aptscl56]", "values": [{"measurement": "binding result", "setting": "sclerostin loop1", "value": "no binding"}, {"measurement": "binding result", "setting": "sclerostin loop3 (WT)", "value": "binds"}, {"measurement": "Kd", "setting": "[1]", "value": 43.1, "unit": "nM"}, {"measurement": "binding result", "setting": "sclerostin loop3m", "value": "binds"}, {"measurement": "binding result", "setting": "sclerostin loop2", "value": "no binding"}]}, {"binder": "GAGGGGGCCAACTATGCTTAGTGGGGGGGTTGACCGTATC (ssDNA)", "note": "[aptamer candidate 15]", "values": [{"measurement": "Kd", "setting": "[1]", "value": 4, "unit": "nM"}]}, {"binder": "CGGGGTGTGGGTAAATCGTTAGAAAGATTAAACAGCTGCC (ssDNA)", "note": "[aptscl56m]", "values": [{"measurement": "binding result", "setting": "[1]", "value": "no binding"}]}]}
